Test [1] deals with Herceptin containing human κ light chain subgroup 1 (Vκ1) (manufactured by Chugai Pharmaceutical Co., Ltd.). Put plainly: ELISA; antibody immobilised, binding protein added, Anti-6-His detection (method of Example 21(4)). Background: ELISA stands for enzyme-linked immunosorbent assay.
Test [2] addresses human CTLA4 antibody containing human κ light chain subgroup 3 (Vκ3) (manufactured by R&D Systems). The test is described as above.
The target of test [3] is Herceptin containing human κ light chain subgroup 1 (Vκ1) (manufactured by Chugai Pharmaceutical Co., Ltd.). Put plainly: ELISA; antibody immobilised (10 ug/mL), binding protein at 50 ug/mL, Anti-6-His detection, blank-subtracted.
Test [4] concerns the target human CTLA4 antibody containing human κ light chain subgroup 3 (Vκ3) (manufactured by R&D Systems). The test is described as above.
Test [5] deals with human PCSK9 antibody containing human κ light chain subgroup 4 (Vκ4) (manufactured by R&D Systems). Described as above.
In test [6] the target is human PDGF R alpha antibody containing human κ light chain subgroup 3 (Vκ3) (manufactured by R&D Systems). The test is described as above.
Test [7] has as its target Herceptin containing human κ light chain subgroup 1 (Vκ1) (manufactured by Chugai Pharmaceutical Co., Ltd.). In words: ELISA; Herceptin immobilised, binding protein at 2 ug/mL, dissociation with 0.05 M citric acid pH 2.4 for 2 min, absorbance ratio to wells without dissociation.

B1: FpL_C3KR (designed binder)
chain: ETPEEPREEVTIRVNLIFADGRIQTAEFRGTFEEATARAYAYANLLARENGEYTADLEDGGNTINIRFAGHHHHHH
For the molecule B1, the Polyclonal antibody-binding activity (abs@450 nm) in test [1] amounted to 0.86 abs@450 nm; in test [2], 0.07 abs@450 nm; in test [3], 0.92 abs@450 nm; in test [4] it was 0.32 abs@450 nm; in test [5], 0.77 abs@450 nm; in test [6] it was 0.21 abs@450 nm.

B2: FpL_C3KX_5e_P6S (designed binder)
chain: ETPEESAEEVTIRVNLIFADGRIQTAEFIGTFEEATARAYAYANLLARDYGGFTADLEDGGYTINIRFAGHHHHHH
For B2, the results for the Polyclonal antibody-binding activity (abs@450 nm) in test [1] and in test [2] were 0.98 abs@450 nm and 0.78 abs@450 nm, respectively.

B3: FpL_C3KX 5e (designed binder)
chain: ETPEEPAEEVTIRVNLIFADGRIQTAEFIGTFEEATARAYAYANLLARDYGGFTADLEDGGYTINIRFAGHHHHHH
As to B3, the Polyclonal antibody-binding activity (abs@450 nm) came to 0.96 abs@450 nm in test [1] and 0.06 abs@450 nm in test [2].

B4: FpL_C3KX 7c (designed binder)
chain: ETPGEPAEEVTIRVNLIFADGRIQTAEFIGTFEEATARAYAYANLLRRDYGDFTADLEDGGYTINIRFAGHHHHHH
On to B4, for which the Elution rate [%] in test [7] amounted to 59%.

B5: FpL_C3KX 7b (designed binder)
chain: ETPGEPAEEVTIRVNLIFADGRIQTARFIGTFEEATARAYAYANLLARDYGDFTADLEDGGYTINIRFAGHHHHHH
With B5, in test [7], the Elution rate [%] was found to be 61%.

B6: FpL_C3KX 6a (designed binder)
chain: ETPGEPAEEVTIRVNLIFADGRIQTAEFIGTFEEATARAYAYANLLARDYGDFTADLEDGGYTINIRFAGHHHHHH
For the molecule B6, the Elution rate [%] in test [7] was 25%.
